These results are taken from publication PMC4139268, “Thermal, Chemical and pH Induced Unfolding of Turmeric Root Lectin: Modes of Denaturation” (PLoS ONE, 2014).

This series deals with the molecule itself. Description: SEC; Biogel P-100 column; CLA incubated 5 h at room temperature at pH 7, 5 or 4 (10 mM Na-phosphate or Na-acetate, 150 mM NaCl); mass from a standard curve run at pH 7. In general terms: Size exclusion chromatography separates by hydrodynamic size, large species first.

B1: Curcuma longa rhizome lectin (natural protein)
chain: KNILLSGETLETGKFLTEGEFTFLMQSDCNLVLYDLNRPIWSSGTIHKGSGCILKMQNDGNLVIYNVTNNAIWASNTGGQQGNYILILQRDRNVVIYSQPIFNTDTAVSKLNSSNLGETGNGGNIAQPENKIAIGASNGHNANILPSGETLPTGKLTLPSEVATETGK
modifications: glycosylated (glycoprotein with about 5.2% covalently bound sugar); sites not stated
By stoichiometry N is commonly meant the number of molecules, sites or subunits per partner or assembly. For the protein B1, the “stoichiometry N” value was 2.
